Test results from patent US20250277022A1 (STAIDSON BEIJING BIOPHARMACEUTICALS, published 2025).
Like-named read-outs stand apart in the source and are kept apart here.

What was measured:
[1] = target: T1, human TSLP (human, UniProt Q969D9 29-159); test: cell-based or functional assay
[2] = target: T1, human TSLP; test: ELISA, plate coated with human TSLP, test antibodies as human IgG1
Description: (§1) ELISA Screening: Monoclonal scFv antibodies were selected and subjected to ligand binding assays. The first assay was designed to identify scFv antibodies that bound human TSLP and/or cynomolgus TSLP. Briefly, a 96-well plate was coated with human TSLP or cynomolgus TSLP in PBS at 0.1 μg/well and left overnight at 4° C. Before loading the scFv antibodies, the plates were washed with TBST, blocked for 1-2 hours at 37° C. using 5% milk and washed again with TBST. Each scFv sample was first diluted to 40 μg/mL, and 150 μL was added to the first row of wells. The 40 μg/mL scFv samples were then serially diluted at a 1:3 ratio and added to the remaining wells. After incubating for an hour at 37° C., followed by washing with TBST for 6 times, 100 μl of the secondary antibody (HRP labeled mouse anti-flag (1:2500)) was added to each well. After incubation for an hour under 37° C., the plate was washed for 3 times using TBST. TMB was then added at 100 μL/well and incubated for 10-20 minutes at 37° C. 2 M H₂SO₄ was used to stop the reaction. The ELISA results (OD405) were then analyzed and the binding curves were generated by PRISM.

[3] = target: T2, human IL-7 (human, UniProt P13232 26-177); test: ELISA on human IL-7
T2 construct: also called TSLP homologous protein IL-7
T2 sequence (looked up): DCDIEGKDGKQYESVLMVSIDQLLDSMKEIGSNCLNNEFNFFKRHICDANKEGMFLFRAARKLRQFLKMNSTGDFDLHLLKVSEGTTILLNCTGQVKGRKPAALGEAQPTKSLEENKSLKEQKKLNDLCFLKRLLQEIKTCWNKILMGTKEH

[4] = target: T3, TSLP-His (human, UniProt Q969D9 29-159, limits assumed); test: HTRF competition: blocking of TSLP-his binding to HEK293-Flag-hTSLPR-IL7Ra cells, IgG1
T3 construct: also called his-tagged TSLP; not shown: His-tag

[5] = target: T4, cynomolgus monkey TSLP (cynomolgus monkey, UniProt A0A7N9CAT7 29-159); test: ELISA, plate coated with cynomolgus monkey TSLP, test antibodies as human IgG1
T4 construct: also called cynomolgus TSLP; recombinant cynomolgus monkey TSLP
T4 sequence (A0A7N9CAT7 entry or part of it): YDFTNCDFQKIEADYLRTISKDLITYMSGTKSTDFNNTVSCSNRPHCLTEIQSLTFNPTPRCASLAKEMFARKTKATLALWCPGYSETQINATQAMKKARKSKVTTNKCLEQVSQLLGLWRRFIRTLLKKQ
Description: as §1

[6] = target: T1, human TSLP; test: cell-based or functional assay; remark: listed apart in the source
[7] = target: E. coli derived human TSLP (human, UniProt Q969D9 29-159, limits assumed); test: cell-based or functional assay
[8] = target: T1, human TSLP; test: cell-based or functional assay; remark: listed apart in the source
[9] = target: T1, human TSLP; test: solution equilibrium titration, MSD electrochemiluminescence, IgG1
[10] = target: T4, cynomolgus monkey TSLP; test: as above
[11] = target: T1, human TSLP; test: ELISA, plate coated with human TSLP, test antibodies as human IgG1; remark: listed apart in the source
Description: as §1

[12] = target: T1, human TSLP; test: cell-based or functional assay; remark: listed apart in the source
[13] = target: T4, cynomolgus monkey TSLP; test: ELISA, plate coated with cynomolgus monkey TSLP, test antibodies as human IgG1; remark: listed apart in the source
Description: as §1

[14] = target: T4, cynomolgus monkey TSLP; test: as above; remark: listed apart in the source
Description: as §1

[15] = target: T1, human TSLP; test: ELISA, plate coated with human TSLP, test antibodies as human IgG1; remark: listed apart in the source
Description: as §1

[16] = target: T1, human TSLP; test: cell-based or functional assay; remark: listed apart in the source
[17] = target: T4, cynomolgus monkey TSLP; test: ELISA, plate coated with cynomolgus monkey TSLP, test antibodies as human IgG1; remark: listed apart in the source
Description: as §1

[18] = target: T1, human TSLP; test: ELISA, plate coated with human TSLP, test antibodies as human IgG1; remark: listed apart in the source
Description: as §1

[19] = target: T4, cynomolgus monkey TSLP; test: ELISA, plate coated with cynomolgus monkey TSLP, test antibodies as human IgG1; remark: listed apart in the source
Description: as §1

[20] = target: T1, human TSLP; test: ELISA, plate coated with human TSLP, test antibodies as human IgG1; remark: listed apart in the source
Description: as §1

B1: TSLP-0103 (antibody, V domains shown)
VH: QVQLQESGPGLVKPSETLSLTCTVSGYSISSGYGWSWIRQPPGKGLEWIGYISYYGSISYNPSLKSRVTISRDTSKNQFSLKLSSVTAADTAVYYCARTNLLYFDSWGQGTLVTVSS
VL: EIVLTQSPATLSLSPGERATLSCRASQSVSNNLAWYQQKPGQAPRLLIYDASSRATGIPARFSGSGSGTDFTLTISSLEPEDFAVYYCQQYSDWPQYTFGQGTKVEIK
IC50, inhibition of human TSLP-induced Stat5 activation (Stat5-luciferase reporter, Ba/F3 cells with hTSLPR and hIL7Ra) [1]: 0.0129 µg/mL
EC50 (read off the curve) [2]: ~0.04 µg/mL
binding result [3]: no binding
IC50 [4]: 0.379 µg/mL
EC50 (read off the curve) [5]: ~0.7 µg/mL

B2: TSLP-0107 (antibody, V domains shown)
VH: QVQLQESGPGLVKPSETLSLTCTVSGYSISSGYGWSWIRQPPGKGLEWIGYISYYGSISYNPSLKSRVTISVDTSKNQFSLKLSSVTAADTAVYYCARTNLLYFDSWGQGTLVTVSS
VL: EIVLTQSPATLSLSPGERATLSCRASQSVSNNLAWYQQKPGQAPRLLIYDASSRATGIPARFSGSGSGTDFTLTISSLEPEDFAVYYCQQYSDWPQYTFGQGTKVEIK
notes: also called TSLP-0107-IgG1
IC50, inhibition of TSLP induced proliferation of Ba/F3-TSLPR-IL7Ra cells (CellTiter-Glo) [6]: 0.0136 µg/mL
IC50, inhibition of human TSLP-induced Stat5 activation (Stat5-luciferase reporter, Ba/F3 cells with hTSLPR and hIL7Ra) [1]: 0.00884 µg/mL
EC50 (read off the curve) [2]: ~0.04 µg/mL
IC50, inhibition of E. coli derived human TSLP induced Stat5 activation [7]: 0.00259 µg/mL
binding result [3]: no binding
IC50, inhibition of human TSLP induced TARC release from human PBMCs (TARC ELISA) [8]: 0.000758 µg/mL
IC50 [4]: 0.116 µg/mL
Kd [9]: 0.044 nM
Kd [10]: 0.0254 nM
EC50 (read off the curve) [5]: ~0.7 µg/mL

B3: TSLP-04 (antibody, V domains shown)
V domain 1: QEQLVQSGDEVKKPGASVKVSCKSSGFTFGSYAISWVRQAPGQGLEWMGMLVPLLGVTNYAEKFQGRVTITADPSTTTTSMELSSLRSEDTAVYYCARGGSNYLYWYFDLWGPGTPITVSS
V domain 2: QSAPIQPRSVSGSPGQSVTISCTGTSSDIGGYNRISWYQQHPGKAPKLMIYDVSKRPSGVSDRFSGSKSGNTASLTISGLQAEDEADYYCSSYAGTDTFVLFGGGTQLTIV
notes: also called parent antibody TSLP-04
IC50, inhibition of TSLP induced proliferation of Ba/F3-TSLPR-IL7Ra cells (CellTiter-Glo) [6]: 0.15 µg/mL
EC50 (read off the curve) [11]: ~0.1 µg/mL
IC50, inhibition of human TSLP-induced Stat5 activation (Stat5-luciferase reporter, Ba/F3 cells with hTSLPR and hIL7Ra) [12]: 0.0364 µg/mL

B4: TSLP-0401 (antibody, V domains shown)
V domain 1: QEQLVQSGDEVKKPGASVKVSCKSSGFTFGSYAISWVRQAPGQGLEWMGMIIPLLGVTDYAEKFQGRVTITADPSTTTTSMELSSLRSEDTAVYYCARGGTNYLYWYFDLWGPGTPITVSS
V domain 2: QSAPIQPRSVSGSPGQSVTISCTGTSSDIGGYNRVSWYQQHPGKAPKLMIYEVSKRPSGVSDRFSGSKSGNTASLTISGLQAEDEADYYCSAYAGTDTFVLFGGGTQLTIV
IC50, inhibition of TSLP induced proliferation of Ba/F3-TSLPR-IL7Ra cells (CellTiter-Glo) [6]: 0.0195 µg/mL
EC50 (read off the curve) [13]: ~2 µg/mL
EC50 (read off the curve) [11]: ~0.1 µg/mL
IC50, inhibition of human TSLP-induced Stat5 activation (Stat5-luciferase reporter, Ba/F3 cells with hTSLPR and hIL7Ra) [12]: 0.0195 µg/mL
IC50 [4]: 0.333 µg/mL

B5: TSLP-0301 (antibody, V domains shown)
VH: EVQLVESGGGLVQPGGSLRLSCAASGFTFSNYDMTWVRQAPGKGLEWVSSITFASSYIYYADSVKGRFTISRDNAKNSLSLQMNSLRAEDTAVYYCTRGGGAYYGGSLDVWGQGVLVTVSS
VL: DIVMTQTPLSLSVTPGEPASISCRSSQSLLHSNEYTYLHWYLQKPGQSPQLLIYLVSHRASGVPDRFSGSGSDTDFTLKISRVEAEDVGVYYCEQTLQTPFTFGGGTKVEIK
EC50 (read off the curve) [14]: ~2 µg/mL
IC50, inhibition of TSLP induced proliferation of Ba/F3-TSLPR-IL7Ra cells (CellTiter-Glo) [6]: 0.217 µg/mL
IC50, inhibition of human TSLP-induced Stat5 activation (Stat5-luciferase reporter, Ba/F3 cells with hTSLPR and hIL7Ra) [12]: 0.0417 µg/mL

B6: TSLP-03 (antibody, V domains shown)
VH: EVQLVESGGGLVQPGGSLRLSCAASGFTFSNYDMTWVRQAPGKGLEWVSSITFASSYIYYADSVKGRFTISRDNAKNSLSLQMNSLRAEDTAVYYCTRGGGAYHGGSLDVWGQGVLVTVSS
VL: DIVMTQTPLSLSVTPGEPASISCRSSQSLLHINGYTYLHWYLQKPGQSPQLLIYLVSHRASGVPDRFSGSGSDTDFTLKISRVEAEDVGVYYCEQTLQTPYSFGGGTKVEIK
notes: also called parent antibody TSLP-03
EC50 (read off the curve) [14]: ~0.9 µg/mL
IC50, inhibition of TSLP induced proliferation of Ba/F3-TSLPR-IL7Ra cells (CellTiter-Glo) [6]: 0.198 µg/mL
EC50 (read off the curve) [15]: ~0.08 µg/mL
IC50, inhibition of human TSLP-induced Stat5 activation (Stat5-luciferase reporter, Ba/F3 cells with hTSLPR and hIL7Ra) [12]: 0.0367 µg/mL
IC50 [4]: 0.494 µg/mL

B7: TSLP-0302 (antibody, V domains shown)
VH: EVQLVESGGGLVQPGGSLRLSCAASGFTFSNYGMTWVRQAPGKGLEWVSSITFASSYIYYADSVKGRFTISRDNAKNSLSLQMNSLRAEDTAVYYCTRGGGAYYGGSLDVWGQGVLVTVSS
VL: DIVMTQTPLSLSVTPGEPASISCRSSQSLLHSYGYTYLHWYLQKPGQSPQLLIYLVSYRASGVPDRFSGSGSDTDFTLKISRVEAEDVGVYYCEQTLQTPYTFGGGTKVEIK
EC50 (read off the curve) [15]: ~0.06 µg/mL

B8: TSLP-02 (antibody, V domains shown)
VH: QVQLVQSGAEVKKPGSSVKVSCKASGFTFGSYGINWVRQAPGQGLEWLGVIVPLVGVTIYAEKFQGRVTITADTSTSTAYMELSSLRSEDTAVYYCARGQEYFYWYFDLWGQGTLVTVSS
VL: QSALTQPPSASGSPGQSVTISCSGSSSDIGGYNRVSWYQQHPGKAPKLMIYDVSKRPSGVPDRFSGSKSGNTASLTVSGLQAEDEADYYCSSYAGTDTFILFGGGTKLTVL
notes: also called parent antibody TSLP-02
IC50, inhibition of human TSLP-induced Stat5 activation (Stat5-luciferase reporter, Ba/F3 cells with hTSLPR and hIL7Ra) [16]: 0.00667 µg/mL
IC50, inhibition of TSLP induced proliferation of Ba/F3-TSLPR-IL7Ra cells (CellTiter-Glo) [6]: 0.0175 µg/mL
EC50 (read off the curve) [17]: ~0.7 µg/mL
EC50 (read off the curve) [18]: ~0.09 µg/mL
binding result [3]: no binding
IC50 [4]: 0.229 µg/mL

B9: TSLP-0205 (antibody, V domains shown)
VH: QVQLVQSGAEVKKPGSSVKVSCKASGFTFGSYGINWVRQAPGQGLEWLGVIVPLVGVTIYAEKFQGRVTITADTSTSTAYMELSSLRSEDTAVYYCARGQEYFYWYFDLWGQGTLVTVSS
VL: QSALTQPPSASGSPGQSVTISCTGTTSDIGGYNRVSWYQQHPGKAPKLMIYEVSKRPSGVPDRFSGSKSGNTASLTVSGLQAEDEADYYCSSYAGTDTFAIFGGGTKLTVL
IC50, inhibition of TSLP induced proliferation of Ba/F3-TSLPR-IL7Ra cells (CellTiter-Glo) [6]: 0.284 µg/mL
EC50 (read off the curve) [19]: ~0.3 µg/mL
IC50, inhibition of human TSLP-induced Stat5 activation (Stat5-luciferase reporter, Ba/F3 cells with hTSLPR and hIL7Ra) [12]: 0.0421 µg/mL
EC50 (read off the curve) [20]: ~0.04 µg/mL

B10: TSLP-0202 (antibody, V domains shown)
VH: QVQLVQSGAEVKKPGSSVKVSCKASGFTFGSYGINWVRQAPGQGLEWMGVIVPLVGVTIYAEKFQGRVTITADESTSTAYMELSSLRSEDTAVYYCARGQEYFYWYFDLWGQGTLVTVSS
VL: QSALTQPPSASGSPGQSVTISCSGSSSDIGGYNRVSWYQQHPGKAPKLMIYDVSKRPSGVPDRFSGSKSGNTASLTVSGLQAEDEADYYCSSYAGTDTFILFGGGTKLTVL
notes: also called TSLP-0202-IgG1
IC50, inhibition of human TSLP-induced Stat5 activation (Stat5-luciferase reporter, Ba/F3 cells with hTSLPR and hIL7Ra) [16]: 0.00257 µg/mL
IC50, inhibition of TSLP induced proliferation of Ba/F3-TSLPR-IL7Ra cells (CellTiter-Glo) [6]: 0.0131 µg/mL
EC50 (read off the curve) [17]: ~0.7 µg/mL
EC50 (read off the curve) [18]: ~0.08 µg/mL
IC50, inhibition of human TSLP induced TARC release from human PBMCs (TARC ELISA) [8]: 0.000365 µg/mL
IC50 [4]: 0.297 µg/mL
Kd [9]: 0.0211 nM
Kd [10]: 0.00447 nM

B11: TSLP-0206 (antibody, V domains shown)
VH: QVQLVQSGAEVKKPGSSVKVSCKASGFTFGSYGISWVRQAPGQGLEWLGVIVPLVDVTIYAEKFQGRVTITADTSTSTAYMELSSLRSEDTAVYYCARGQEYFYWYFDLWGQGTLVTVSS
VL: QSALTQPPSASGSPGQSVTISCTGTISDIGGYNRVSWYQQHPGKAPKLMIYEVSKRPSGVPDRFSGSKSGNTASLTVSGLQAEDEADYYCSSYAGTDTFVFFGGGTKLTVL
IC50, inhibition of TSLP induced proliferation of Ba/F3-TSLPR-IL7Ra cells (CellTiter-Glo) [6]: 0.0651 µg/mL
EC50 (read off the curve) [19]: ~0.3 µg/mL
IC50, inhibition of human TSLP-induced Stat5 activation (Stat5-luciferase reporter, Ba/F3 cells with hTSLPR and hIL7Ra) [12]: 0.0183 µg/mL
EC50 (read off the curve) [20]: ~0.04 µg/mL
